In patent US20080015165A1, “NOVEL POLYPEPTIDE” (KYOWA HAKKO KOGYO CO., LTD., priority 1998, published 2008):

What was measured:
Namalwa cells [1] = assay: Indirect fluorescent antibody staining (FACS) of transformed Namalwa cells; format: cell-based, human; conditions: FIG. 1
Experimental: The plasmids were dissolved in 10 μl of TE buffer. Then each of the plasmids was introduced into Namalwa cells by electroporation method [Cytotechnology, 3, 133 (1990)].
After introducing […] of the plasmids prepared as described above or 4 μg of pAMo (control plasmid) per 1.0×10^6 to 1.6×10^6 cells (200 μl) by electroporation method, the cells were suspended in 8 ml of RPMI1640 media and then cultured in a CO2 incubator for 24 hours at 37° C.
After culturing, the medium was supplemented with G418 (manufactured by GIBCO BRL) to 0.5 mg/ml followed by culturing for another 10 to 14 days, thereby obtaining transformed cells.
Indirect fluorescent antibody staining using the anti-Lewis x sugar chain antibody (PM-81) was performed as follows.
About 1×10^6 transformed cells were added to a microtube (1.5 ml: manufactured by Eppendolf) and then the cells were collected by centrifugation (550×g, 7 minutes).
The cells were washed with 0.9 ml of A-PBS, suspended by adding 20 μl of the anti-Lewis x sugar chain antibody (PM-81) that had been diluted with A-PBS to about 10 μg/ml, and then allowed to react for 1 hour at 4° C. […]
After the reaction, the cells were washed once with 0.9 ml of A-PBS, and then suspended in 0.6 ml of A-PBS, followed by the analysis using a fluorescence activated cell sorter. […]

Namalwa cells [2] = assay: Indirect fluorescent antibody staining of Namalwa cells expressing human Fuc-TIV or Fuc-TIX (VIM-2 and Le^x sugar chains); format: cell-based
Experimental: Using an anti-VIM-2 sugar chain antibody (anti-CDw65 antibody, manufactured by Serotec) and anti-Le^x sugar chain antibodies [73-30 (manufactured by […] CORPORATION) and anti-CD15 antibody (C3D-1, manufactured by Dako)], indirect fluorescent antibody staining was performed for Namalwa cells expressing human Fuc-TIV or human Fuc-TIX, and for Namalwa cells transfected with the control vector pAMo, which were constructed in Example 9. The VIM-2 sugar chain is a sugar chain having the structure consisting of Galβ1-4GlcNAcβ1-3Galβ1-4(Fucα1-3)GlcNAc on non-reduced terminal of a sugar chain.
Indirect fluorescent antibody staining was performed according to the method described in Example 1 (3). Anti-VIM-2 sugar chain antibodies, 73-30 and C3D-1 were used after dilution at 1:50, 1:100, and 1:50.

Namalwa KJM-1 cells = assay: Indirect fluorescent antibody staining (FACS) of transformed Namalwa KJM-1 cells; format: cell-based, human; conditions: antibodies CSLEX-1, KM93; FIG. 2 (also Namalwa cells, FIG. 1)
From the text: Similarly, Namalwa KJM-1 cells, into which a control plasmid (pAMo), a mouse Fuc-TIX expression plasmid (pAMo-mFT9), a human Fuc-TIV expression plasmid (pAMo-FT4), or a human Fuc-TVII expression plasmid (pAMo-FT7) had been introduced, were obtained. The cells were subjected to indirect fluorescent antibody staining using the anti-Lewis x sugar chain antibody (KM380) and an anti-sialyl Lewis x sugar chain antibodies (CSLEX-1 or KM93) (see FIG. 2).

[3] = Enzyme activity for monofucosylpoly-N-acetyllactosamine sugar chain P1, Namalwa cell extract, HPLC; format: biochemical; conditions: relative activity with the activity for P1 assumed to be 1
Experimental: Samples were allowed to react in 20 μl of an assay solution [50 mM cacodylate (pH 6.8), 5 mM ATP, 10 mM L-fucose, 75 μM […] (manufactured by SIGMA), 25 mM MnCl2, 15 μM fluorescently labeled sugar chain substrate, 6 μl of the cell lysate above] at 37° C. for 2 hours, followed by treatment at 100° C. for 3 minutes to stop the reaction. Next 200 μl of water was added to the samples, and the supernatant was obtained by centrifugation at 10,000×g for 5 minutes. Using an aliquot of the supernatant (10 μl), products were analyzed by HPLC under the following conditions.
HPLC: • Column—TSK-gel ODS-80TsQA column (4.6×250 mm; TOSOH CORPORATION) • Eluate—0.02 M ammonium acetate (pH 4.0) containing 7% methanol • Elution temperature—50° C. • Flow rate—1.0 ml/min. • Detection—Fluorescence spectrum photometer FB-920 (manufactured by JASCO Corporation) (excitation wavelength: 330 nm, radiation wavelength: 420 nm)
The enzymatic activities of Fuc-TIV, Fuc-TVI and Fuc-TIX were measured using the product P1 or P2 as a substrate in addition to the above substrate (S).

B1: Fuc-TIX: human Fuc-TIX, 359 amino acids (SEQ ID NO:2), α1,3-fucosyltransferase expressed from pAMo-FT9 in Namalwa cells (protein)
chain: MTSTSKGILRPFLIVCIILGCFMACLLIYIKPTNSWIFSPMESASSVLKMKNFFSTKTDYFNETTILVWVWPFGQTFDLTSCQAMFNIQGCHLTTDRSLYNKSHAVLIHHRDISWDLTNLPQQARPPFQKWIWMNLESPTHTPQKSGIEHLFNLTLTYRRDSDIQVPYGFLTVSTNPFVFEVPSKEKLVCWVVSNWNPEHARVKYYNELSKSIEIHTYGQAFGEYVNDKNLIPTISACKFYLSFENSIHKDYITEKLYNAFLAGSVPVVLGPSRENYENYIPADSFIHVEDYNSPSELAKYLKEVDKNNKLYLSYFNWRKDFTVNLPRFWESHACLACDHVKRHQEYKSVGNLEKWFWN
modifications: human
synthesis of the Lewis x sugar chain in transformed cells (Namalwa cells [1]): can synthesize | synthesis of the Lewis y sugar chain in transformed cells (Namalwa cells [1]): can synthesize | reactivity against the anti-Le^x sugar chain antibodies [73-30 and anti-CD15 antibody] (Namalwa cells [2]; Namalwa cells expressing Fuc-TIX compared with those expressing Fuc-TIV): greater | reactivity against the anti-VIM-2 sugar chain antibody (Namalwa cells [2]; compared to Namalwa cells transfected with pAMo): slight increase | synthesis of the sialyl Lewis x sugar chain in transformed cells (Namalwa KJM-1 cells): cannot synthesize | Enzymatic activity, substrate P1, product P3 [3]: 1.0
